The record followed here is patent US20150307628.

A short description of data set [1]: co-expression in HEK293F, protein A purification, non-reducing SDS-PAGE, band density (ImageJ); mean ± S.E.M.
Data set [2] has as its target T1, dummy-Fc heavy chain constant region with CH3B of mutant EW-RVT (S-S) (Q347R/S354C/D399V/F405T).
T1 chain: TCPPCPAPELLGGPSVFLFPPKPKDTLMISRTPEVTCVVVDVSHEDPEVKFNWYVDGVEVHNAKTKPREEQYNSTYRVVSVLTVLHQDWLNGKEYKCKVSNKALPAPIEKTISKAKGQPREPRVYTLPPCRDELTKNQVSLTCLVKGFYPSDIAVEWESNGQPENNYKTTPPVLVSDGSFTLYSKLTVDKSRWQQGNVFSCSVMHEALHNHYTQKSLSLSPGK
The data set is described as above.

The target in data set [3] is T2, dummy-Fc heavy chain constant region with CH3B of mutant SW-WVT (S-S) (Y349C/E357W/D399V/F405T).
T2 chain: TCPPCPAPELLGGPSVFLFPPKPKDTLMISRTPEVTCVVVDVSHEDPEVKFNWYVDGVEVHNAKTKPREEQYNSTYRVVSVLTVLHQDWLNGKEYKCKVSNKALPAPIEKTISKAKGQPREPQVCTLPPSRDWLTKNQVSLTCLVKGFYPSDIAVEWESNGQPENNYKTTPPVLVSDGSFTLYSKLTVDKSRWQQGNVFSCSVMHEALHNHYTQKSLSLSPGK
The data set is described as above.

Data set [4] addresses T3, dummy-Fc heavy chain constant region with CH3B of mutant EEW-RVT (Q347R/D399V/F405T).
T3 chain: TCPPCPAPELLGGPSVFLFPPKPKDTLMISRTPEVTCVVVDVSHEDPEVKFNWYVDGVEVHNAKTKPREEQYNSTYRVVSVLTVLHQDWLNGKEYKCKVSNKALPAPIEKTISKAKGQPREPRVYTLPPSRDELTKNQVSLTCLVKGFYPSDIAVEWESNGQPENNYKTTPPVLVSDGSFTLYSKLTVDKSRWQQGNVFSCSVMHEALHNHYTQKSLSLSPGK
Kind of data set: repeated expression and purification, SDS-PAGE band density (ImageJ).

Data set [5] concerns the target T3, dummy-Fc heavy chain constant region …. Description: co-expression in HEK293F, protein A purification, non-reducing SDS-PAGE, band density (ImageJ); mean ± S.E.M.

B1: hAY4a scFv-Fc heavy chain with CH3A of mutant EW-RVT (S-S) (Y349C/K360E/K409W) (protein)
chain: TCPPCPAPELLGGPSVFLFPPKPKDTLMISRTPEVTCVVVDVSHEDPEVKFNWYVDGVEVHNAKTKPREEQYNSTYRVVSVLTVLHQDWLNGKEYKCKVSNKALPAPIEKTISKAKGQPREPQVCTLPPSRDELTENQVSLTCLVKGFYPSDIAVEWESNGQPENNYKTTPPVLDSDGSFFLYSWLTVDKSRWQQGNVFSCSVMHEALHNHYTQKSLSLSPGK
B1: in data set [1], the Heterodimer yields, AA Homodimer (CH3A:CH3A) (scFv-Fc)2 was 0.6%. The same protein displayed a Heterodimer yields, AB Heterodimer (CH3A:CH3B) (scFv-Fc)(Fc) in data set [2] of 94.2%.

B2: dummy-Fc heavy chain constant region with CH3B of mutant SW-WVT (S-S) (Y349C/E357W/D399V/F405T) (protein)
chain: TCPPCPAPELLGGPSVFLFPPKPKDTLMISRTPEVTCVVVDVSHEDPEVKFNWYVDGVEVHNAKTKPREEQYNSTYRVVSVLTVLHQDWLNGKEYKCKVSNKALPAPIEKTISKAKGQPREPQVCTLPPSRDWLTKNQVSLTCLVKGFYPSDIAVEWESNGQPENNYKTTPPVLVSDGSFTLYSKLTVDKSRWQQGNVFSCSVMHEALHNHYTQKSLSLSPGK
As to B2, the Heterodimer yields, BB Homodimer (CH3B:CH3B) (Fc)2 in data set [1] worked out at 0.8%.

B3: dummy-Fc heavy chain constant region with CH3B of mutant SW-WVT (E357W/D399V/F405T) (protein)
chain: TCPPCPAPELLGGPSVFLFPPKPKDTLMISRTPEVTCVVVDVSHEDPEVKFNWYVDGVEVHNAKTKPREEQYNSTYRVVSVLTVLHQDWLNGKEYKCKVSNKALPAPIEKTISKAKGQPREPQVYTLPPSRDWLTKNQVSLTCLVKGFYPSDIAVEWESNGQPENNYKTTPPVLVSDGSFTLYSKLTVDKSRWQQGNVFSCSVMHEALHNHYTQKSLSLSPGK
As for B3, in data set [1], the Heterodimer yields, BB Homodimer (CH3B:CH3B) (Fc)2 came to 1.7%.

B4: dummy-Fc heavy chain constant region with CH3B of mutant EW-RVT (Q347R/D399V/F405T) (protein)
chain: TCPPCPAPELLGGPSVFLFPPKPKDTLMISRTPEVTCVVVDVSHEDPEVKFNWYVDGVEVHNAKTKPREEQYNSTYRVVSVLTVLHQDWLNGKEYKCKVSNKALPAPIEKTISKAKGQPREPRVYTLPPSRDELTKNQVSLTCLVKGFYPSDIAVEWESNGQPENNYKTTPPVLVSDGSFTLYSKLTVDKSRWQQGNVFSCSVMHEALHNHYTQKSLSLSPGK
In the case of B4, in data set [1], the Heterodimer yields, BB Homodimer (CH3B:CH3B) (Fc)2 turned out to be 1.6%.

B5: dummy-Fc heavy chain constant region with CH3B of mutant EEW-RVT (Q347R/D399V/F405T) (protein)
chain: TCPPCPAPELLGGPSVFLFPPKPKDTLMISRTPEVTCVVVDVSHEDPEVKFNWYVDGVEVHNAKTKPREEQYNSTYRVVSVLTVLHQDWLNGKEYKCKVSNKALPAPIEKTISKAKGQPREPRVYTLPPSRDELTKNQVSLTCLVKGFYPSDIAVEWESNGQPENNYKTTPPVLVSDGSFTLYSKLTVDKSRWQQGNVFSCSVMHEALHNHYTQKSLSLSPGK
In data set [1], B5 had a Heterodimer yields, BB Homodimer (CH3B:CH3B) (Fc)2 of 6.3%.

B6: dummy-Fc heavy chain constant region with CH3B of mutant EW-RVT (S-S) (Q347R/S354C/D399V/F405T) (protein)
chain: TCPPCPAPELLGGPSVFLFPPKPKDTLMISRTPEVTCVVVDVSHEDPEVKFNWYVDGVEVHNAKTKPREEQYNSTYRVVSVLTVLHQDWLNGKEYKCKVSNKALPAPIEKTISKAKGQPREPRVYTLPPCRDELTKNQVSLTCLVKGFYPSDIAVEWESNGQPENNYKTTPPVLVSDGSFTLYSKLTVDKSRWQQGNVFSCSVMHEALHNHYTQKSLSLSPGK
In data set [1], B6 had a Heterodimer yields, BB Homodimer (CH3B:CH3B) (Fc)2 of 2.2%.

B7: hAY4a scFv-Fc heavy chain with CH3A of mutant SW-WVT (S-S) (Y349S/S354C/K409W) (protein)
chain: TCPPCPAPELLGGPSVFLFPPKPKDTLMISRTPEVTCVVVDVSHEDPEVKFNWYVDGVEVHNAKTKPREEQYNSTYRVVSVLTVLHQDWLNGKEYKCKVSNKALPAPIEKTISKAKGQPREPQVSTLPPCRDELTKNQVSLTCLVKGFYPSDIAVEWESNGQPENNYKTTPPVLDSDGSFFLYSWLTVDKSRWQQGNVFSCSVMHEALHNHYTQKSLSLSPGK
Protein B7 had a Heterodimer yields, AB Heterodimer (CH3A:CH3B) (scFv-Fc)(Fc) in data set [3] of 98.6%.

B8: hAY4a scFv-Fc heavy chain with CH3A of mutant EEW-RVT (Q347E/K360E/K409W) (protein)
chain: TCPPCPAPELLGGPSVFLFPPKPKDTLMISRTPEVTCVVVDVSHEDPEVKFNWYVDGVEVHNAKTKPREEQYNSTYRVVSVLTVLHQDWLNGKEYKCKVSNKALPAPIEKTISKAKGQPREPEVYTLPPSRDELTENQVSLTCLVKGFYPSDIAVEWESNGQPENNYKTTPPVLDSDGSFFLYSWLTVDKSRWQQGNVFSCSVMHEALHNHYTQKSLSLSPGK
As to B8, the “yield of formation of the heterodimer” value in data set [4] was “about 90 to 95%”. In data set [5], this protein had a Heterodimer yields, AB Heterodimer (CH3A:CH3B) (scFv-Fc)(Fc) of 90.9%.
